Here are results for 30 sequences from the nanobody polyreactivity screen of Harvey et al. (2022).

This data set in a line: yeast display, Sf9 membrane polyspecificity reagent, FACS + sequencing; frameworks hold sequencing errors. The method, boiled down: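 A nanobody's polyreactivity label depends on the gate it was sorted from. Yeast display cells were stained with 10% biotinylated, detergent-solubilized Sf9 membrane reagent for 1 hour at 4 °C, enriched on streptavidin microbeads and sorted by FACS. The low and high (top ~1%) gates were set on anti-HA fluorescence for expression and streptavidin fluorescence for reagent binding.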
With “QVQLVESGGGLVQAGGSLRLSCAASGRTFGLNAMGWYRQAPGKERELVAAITYSGGSTYYADSVKGRFTISRDNAKNTVYLQMNSLKPEDTAVYYCAKEVQTYWYHYYYWGQGTQVTVSS”, the “polyreactivity (PSR sort gate)” value is recorded as “high polyreactivity”.

“QVQLVESGGGLVQAGGSLRLSCAASGRTFGLNAMGWYRQAPGKERELVAVITSSGGSTYYADSVKGRFTISRDNAKNTVYLQMNSLKPEDTAVYYCAARPPYTDSSPGERTYDYWGQGTQVTVSS”: the “polyreactivity (PSR sort gate)” value is on record as “low polyreactivity”.

Consider “QVQLVESGGGLVQAGGSLRLSCAASGRTFGLNVMGWYRQAPGKERELVATISGVGSTNYADSVKGRFTISRDNAKNTVYLQMNSLKPEDTAVYYCDKDPHVGRWWDLYSPYYSWGQGTQVTVSS”, for which the “polyreactivity (PSR sort gate)” value is “low polyreactivity”.

For “QVQLVESGGGLVQAGGSLRLSCAASGRTFGLNVMGWYRQAPGKERELVATISWSGGTTYYADSVKGRFTISRDYAKNTVYLQMNSLKPEDTAVYYCNRQVTWYPTGGFWGQGTQVTVSS”, the “polyreactivity (PSR sort gate)” value was “low polyreactivity”.

As to “QVQLVESGGGLVQAGGSLRLSCAASGRTFGLYAMGWYRQAPGKERELVAAISSGDSTNYADSVKGRFTISRDNAKNTVYLQMNSLKPEDTAVYYCAAAQQRWWQWYYYWGQGTQVTVSS”, the “polyreactivity (PSR sort gate)” value is listed as “high polyreactivity”.

With “QVQLVESGGGLVQAGGSLRLSCAASGRTFGLYAMGWYRQAPGKERELVAAISYSGGRTYYADSVKGRFTISRDNAKKTVYLQMNILKPEDTAVYYCNKAWFRYYYYRFDYWGLGTQVTVSS”, the “polyreactivity (PSR sort gate)” value is “high polyreactivity”.

“QVQLVESGGGLVQAGGSLRLSCAASGRTFGPNVMGWYRQAPGKERELVAAITYSSASTYYADSVKGRFTISRDNAKNTVYLQMNSLKPEDTAVYYCAARDRYYFGGMYYWGQGTQVTVSS”: the “polyreactivity (PSR sort gate)” value was “low polyreactivity”.

With “QVQLVESGGGLVQAGGSLRLSCAASGRTFGPYAMGWSRQAPGKEREFVAAISYSGGSTYYADSVKGRFTISRDNAKNTVYFQITSLKPEDTAVYYCAVDIDSNSGTRDYWGQGTQVTVSS”, the “polyreactivity (PSR sort gate)” value is recorded as “low polyreactivity”.

As to “QVQLVESGGGLVQAGGSLRLSCAASGRTFGPYAMGWYRQAPGKERELVAAIRYIDDSTFYADSVKGRFTISRDNAKNTVYLQMNSLKPEDTAVYYCAAQRRVVGRHGLSLIRYDYWGQGTQVTVSS”, the “polyreactivity (PSR sort gate)” value was “low polyreactivity”.

With “QVQLVESGGGLVQAGGSLRLSCAASGRTFGPYAMGWYRQAPGKERELVAAITDTGSGTYYADSVKGRFTISRDNAKNTVYIQMNSLKPEDTAVFYCNANYLSWYRYKYNYWGQGTQVTVSS”, the “polyreactivity (PSR sort gate)” value is given as “low polyreactivity”.

Turning to “QVQLVESGGGLVQAGGSLRLSCAASGRTFGQNAMGWYRQAPGKERELVAAISASGSNTYYADSVKGRFTISRDNAKNTVYVQMNSLKPEDTAVYYCAKQVYRPGQQSRYDYWGQGTQVTVSS”, the “polyreactivity (PSR sort gate)” value is “low polyreactivity”.

With “QVQLVESGGGLVQAGGSLRLSCAASGRTFGQYALGGSRKAPGKERELVATITRTARTNYADSVKGRFTISRDNAKNTVYLQMNSLKPEDTAVYYCAKGWPAIYGTYDYCGQGTQVTVSS”, the “polyreactivity (PSR sort gate)” value is on record as “high polyreactivity”.

Take “QVQLVESGGGLVQAGGSLRLSCAASGRTFGRNAMGWYRQAPGERELVAVISRGGSTYYADSVKGRFTISRDNAKNTVYLQMNSLKPEDTAVYYCNADTVYTRNATYDYWGQCTQVTVSS”: the “polyreactivity (PSR sort gate)” value is on record as “low polyreactivity”.

Take “QVQLVESGGGLVQAGGSLRLSCAASGRTFGRNAMGWYRQAPGKERELVAAINGNGGRTSYADSVKGRFTISRDNAKNTVYLPMNSLKPEDTAVYYCNKYTPGWYRYYYWGQGTQVTVSS”: the “polyreactivity (PSR sort gate)” value is “high polyreactivity”.

On to “QVQLVESGGGLVQAGGSLRLSCAASGRTFGRNAMGWYRQAPGKERELVAAISSSGASTYYADSVKGRFTISRDNAKNTVYLQMNSLKPEDTAVYYCAKDVWGSRYAYDYWGQGTQVTVSS”, for which the “polyreactivity (PSR sort gate)” value is on record as “low polyreactivity”.

With “QVQLVESGGGLVQAGGSLRLSCAASGRTFGRNTMGWYRQAPGKERELVAAIDWSGGSTYYADSVKGRFTISRDNAKNTVYLQMNSLKPEDTAVYYCAAKTRWNFYYWGQGTQVTVSS”, the “polyreactivity (PSR sort gate)” value is recorded as “high polyreactivity”.

Regarding “QVQLVESGGGLVQAGGSLRLSCAASGRTFGRYAMGWYRQAPGKERELVAAINSGSASTYYADSVKGRFTISRDNAKNTVYLQMNSLKPEDTAVYYCAVYGYWSKSDYWGQGTQVTVSS”, the “polyreactivity (PSR sort gate)” value is “high polyreactivity”.

Turning to “QVQLVESGGGLVQAGGSLRLSCAASGRTFGRYTMGWYRQAPGKERELVATIRFNGGSTYYADSVKGRFTISRDNAKNTVYLQMNSLKPEDTAVYYCASYRGAYWGQGTQVTVSS”, the “polyreactivity (PSR sort gate)” value is “high polyreactivity”.

“QVQLVESGGGLVQAGGSLRLSCAASGRTFGRYVMGWYRQAPGKERELVAAIDGSGGSTYYADSVKGRFTISRDNAKNTVYLQMNSLKPEDTAVYYCNADVGFVGGDYWGQGTQVTVSS”: the “polyreactivity (PSR sort gate)” value is on record as “high polyreactivity”.

Regarding “QVQLVESGGGLVQAGGSLRLSCAASGRTFGSYAMGWYRQAPGKEREFVASISRRGGSTYYADSVKVRFTISRDNAKNTVYLQINSLKPEDTAVYYCAAGVPASWFDYWGQGTQVTVSS”, the “polyreactivity (PSR sort gate)” value is on record as “high polyreactivity”.

On to “QVQLVESGGGLVQAGGSLRLSCAASGRTFGSYAMGWYRQAPGKERELVAAISSSGGRTYYADSVKGRFTISRDNAKTTVYLQMNSLKPEDTAVYSCNARWRFLYDYWGQGTQVTVSS”, for which the “polyreactivity (PSR sort gate)” value was “high polyreactivity”.

In the case of “QVQLVESGGGLVQAGGSLRLSCAASGRTFGSYAMGWYRQAPGKERELVAAITASGVRTYYADSVKGRFTISRDNAKNTVYLQMNSLKPEDTAVYYCNARRLSTVQYDYWGQGTQVTVSS”, the “polyreactivity (PSR sort gate)” value was “high polyreactivity”.

“QVQLVESGGGLVQAGGSLRLSCAASGRTFGSYAMGWYRQAPGKERELVAAITTDASTNYADSVKGRFTISRDNAKNTVYLQMNSLKPEDTAVYYCAKRKRTNYGFWGQGTQVTVSS”: the “polyreactivity (PSR sort gate)” value is reported as “low polyreactivity”.

Consider “QVQLVESGGGLVQAGGSLRLSCAASGRTFGSYGMGWYRQAPGKERELVAAISRSVGSTYYADSVKGRFTISRDNAKITVYLQMNSLKPEDTAVYYCNTVDRRRYAGHYYWGQGTQVTVSS”, for which the “polyreactivity (PSR sort gate)” value is given as “high polyreactivity”.

For the sequence “QVQLVESGGGLVQAGGSLRLSCAASGRTFGSYVMGWYRQAPGKERELVAAISSRGTRTYYADSVKGRFTISRDNAKNTVYLQMNSLKPEDTAVYYCAAEWPYRFQYGEMDYWGQGTQVTVSS”, the “polyreactivity (PSR sort gate)” value is “high polyreactivity”.

As to “QVQLVESGGGLVQAGGSLRLSCAASGRTFGTYAMGWYRQAPGKDRELVAAISRRGGTTYYADSVKGRFTISRDNAKNTVYLQMNSLKPEDTAVYYCARASWSITTVLSTMDYWGQGTQVTVSS”, the “polyreactivity (PSR sort gate)” value is recorded as “high polyreactivity”.

With “QVQLVESGGGLVQAGGSLRLSCAASGRTFGVNAMGWYRQAPGKEREFVAAISRSTGSTYYADSVKGRFTISRDNAKNTVYLQMNSLKPEDTAVYYCAVKGASYPAYRGYDYWGQGTQVTVSS”, the “polyreactivity (PSR sort gate)” value is “high polyreactivity”.

Turning to “QVQLVESGGGLVQAGGSLRLSCAASGRTFGVNAMGWYRQAPGKERELVARIRVSGGRTYYADSVKGLFTISRDNAKNTVYLQMNSLKPEDTAVYYCNAGYTYNRVIWPYYYWGQGTQVTVSS”, the “polyreactivity (PSR sort gate)” value is recorded as “high polyreactivity”.

As to “QVQLVESGGGLVQAGGSLRLSCAASGRTFGVNTMGCYRQAPGKEREFVASISTSGGSTYADSVNGRFTISRDNAKNTVYLQMNSLKPEDTAVYYCAKDTDAVYDEYDSWGQGTQVTVSS”, the “polyreactivity (PSR sort gate)” value was “low polyreactivity”.

In the case of “QVQLVESGGGLVQAGGSLRLSCAASGRTFGVNTMGWYRQAPGKERELVASISTSGGSTYADSVKGRFTISRDNAKNTVYLQMNSLKPEDTAVYYCAKDTDAVYDEYDSWGQGTQVTVSS”, the “polyreactivity (PSR sort gate)” value is “low polyreactivity”.
